What was measured:
[1] = target: two chain urokinase (tcuPA) (Homo sapiens (Human)) (UniProt P00749); assay: cell-based or functional assay
[2] = target: wild type single chain urokinase (scuPA) (Homo sapiens (Human)) (UniProt P00749); assay: cell-based or functional assay

“soluble recombinant human urokinase receptor (suPAR) (from UniProt Q03405 23-299)” gave an EC50 of phenylepherine (PE)-induced contraction of rat aortic rings [1] of 0.029 µM and an EC50 of phenylepherine (PE)-induced contraction of rat aortic rings [2] of 0.029 µM.
